The values that follow come from publication PMC5392032 (Science Advances, 2017).

The data set deals with the molecule itself. Put plainly: SEC-MALS.

B1: Vps4^E233Q (ATP hydrolysis-deficient mutant of Saccharomyces cerevisiae vacuolar protein sorting-associated protein 4) (enzyme)
chain: KKSPSAGSGSNGGNKKISQEEGEDNGGEDNKKLRGALSSAILSEKPNVKWEDVAGLEGAKEALKEAVILPVKFPHLFKGNRKPTSGILLYGPPGTGKSYLAKAVATEANSTFFSVSSSDLVSKWMGESEKLVKQLFAMARENKPSIIFIDQVDALTGTRGEGESEASRRIKTELLVQMNGVGNDSQGVLVLGATNIPWQLDSAIRRRFERRIYIPLPDLAARTTMFEINVGDTPCVLTKEDYRTLGAMTEGYSGSDIAVVVKDALMQPIRKIQSATHFKDVSTEDDETRKLTPCSPGDDGAIEMSWTDIEADELKEPDLTIKDFLKAIKSTRPTVNEDDLLKQEQFTRDFGQEGN
Regarding B1, the “stoichiometry N” value was 6.
